# Substitutions are numbered along the chain they refer to.
# T1: Brachyury full-length G177D (Homo sapiens, UniProt O15178 1-435, G177D)
# T1 sequence: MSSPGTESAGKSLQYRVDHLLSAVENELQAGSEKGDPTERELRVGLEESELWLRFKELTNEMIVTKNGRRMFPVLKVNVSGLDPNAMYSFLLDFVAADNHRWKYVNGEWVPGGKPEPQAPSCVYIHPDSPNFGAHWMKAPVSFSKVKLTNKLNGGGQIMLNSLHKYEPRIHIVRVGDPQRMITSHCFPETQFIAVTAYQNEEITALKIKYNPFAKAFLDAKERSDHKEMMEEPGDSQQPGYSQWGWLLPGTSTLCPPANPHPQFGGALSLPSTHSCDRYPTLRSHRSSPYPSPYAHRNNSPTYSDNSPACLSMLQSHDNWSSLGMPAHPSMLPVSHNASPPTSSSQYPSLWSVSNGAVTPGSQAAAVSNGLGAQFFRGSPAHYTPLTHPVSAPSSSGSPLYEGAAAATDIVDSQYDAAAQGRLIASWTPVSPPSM
# T2: Brachyury full-length WT (Homo sapiens, UniProt O15178 1-435)
# T2 sequence: T1 sequence with D177G
# T3: Brachyury DNA binding domain WT (Homo sapiens, UniProt O15178 41-224)
# T3 sequence: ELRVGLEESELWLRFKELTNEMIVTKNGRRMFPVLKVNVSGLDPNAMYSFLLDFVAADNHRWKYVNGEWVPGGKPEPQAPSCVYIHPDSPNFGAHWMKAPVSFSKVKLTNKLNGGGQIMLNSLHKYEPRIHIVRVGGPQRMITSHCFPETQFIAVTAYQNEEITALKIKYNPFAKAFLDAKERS
# T4: Brachyury DNA binding domain G177D (Homo sapiens, UniProt O15178 41-224, G177D)
# T4 sequence: T3 sequence with G137D
# B1: TA50 palindromic 50 bp (TA50-F/TA50-R) (dsDNA)
# DNA 1: CATGCATGCAGGGAATTTCACACCTAGGTGTGAAATTCCCATTCGTGCGA
# DNA 2: TCGCACGAATGGGAATTTCACACCTAGGTGTGAAATTCCCTGCATGCATG
# B2: 24 bp palindromic T-box DNA (dsDNA)
# DNA 1: AATTTCACACCTAGGTGTGAAATT
# DNA 2: AATTTCACACCTAGGTGTGAAATT
# B3: 26 bp palindromic T-box DNA (dsDNA)
# DNA 1: GAATTTCACACCTAGGTGTGAAATTC
# DNA 2: GAATTTCACACCTAGGTGTGAAATTC
# Columns and labels:
# [1] = target: T1, Brachyury full-length G177D; test: EMSA; apparent; Hill slope 1.8; DNA 1-5 nM; EMSA: 25 mM HEPES pH 7.4, 75 mM NaCl, 10% glycerol, 0.1% Tween 20, 1 mM TCEP, on ice 10 min; SPR: 10 mM HEPES pH 7.5, 150 mM NaCl, 1 mM DTT, 1% DMSO, temperature not stated; details: protein: recombinant; tags: C-terminal AVI tag, biotinylated; N-terminal 9His-GST removed with TEV (construct stated for SPR/DSF); chain copies: 2; label: 32P 5' end (EMSA); none stated (SPR); blunt
# [2] = target: T2, Brachyury full-length WT; test: EMSA; apparent; Hill slope 2.3; DNA 1-5 nM; EMSA: 25 mM HEPES pH 7.4, 75 mM NaCl, 10% glycerol, 0.1% Tween 20, 1 mM TCEP, on ice 10 min; SPR: 10 mM HEPES pH 7.5, 150 mM NaCl, 1 mM DTT, 1% DMSO, temperature not stated; details: protein: recombinant; tags: C-terminal AVI tag, biotinylated; N-terminal 9His-GST removed with TEV (construct stated for SPR/DSF); chain copies: 2; label: 32P 5' end (EMSA); none stated (SPR); blunt
# [3] = target: T2, Brachyury full-length WT; test: SPR; protein immobilized; steady-state fit; EMSA: 25 mM HEPES pH 7.4, 75 mM NaCl, 10% glycerol, 0.1% Tween 20, 1 mM TCEP, on ice 10 min; SPR: 10 mM HEPES pH 7.5, 150 mM NaCl, 1 mM DTT, 1% DMSO, temperature not stated; details: protein: recombinant; tags: C-terminal AVI tag, biotinylated; N-terminal 9His-GST removed with TEV (construct stated for SPR/DSF); chain copies: 2; label: 32P 5' end (EMSA); none stated (SPR); blunt
# [4] = target: T1, Brachyury full-length G177D; test: as above; details: protein: recombinant; tags: C-terminal AVI tag, biotinylated; N-terminal 9His-GST removed with TEV (construct stated for SPR/DSF); chain copies: 2; label: 32P 5' end (EMSA); none stated (SPR); blunt
# [5] = target: T3, Brachyury DNA binding domain WT; test: X-ray crystallography; 2.25 A; two protomers per duplex; EMSA: 25 mM HEPES pH 7.4, 75 mM NaCl, 10% glycerol, 0.1% Tween 20, 1 mM TCEP, on ice 10 min; SPR: 10 mM HEPES pH 7.5, 150 mM NaCl, 1 mM DTT, 1% DMSO, temperature not stated; details: protein: recombinant; chain copies: 2; blunt, self-complementary, 2 copies of strand
# [6] = target: T4, Brachyury DNA binding domain G177D; test: X-ray crystallography; 2.15 A; two protomers per duplex; EMSA: 25 mM HEPES pH 7.4, 75 mM NaCl, 10% glycerol, 0.1% Tween 20, 1 mM TCEP, on ice 10 min; SPR: 10 mM HEPES pH 7.5, 150 mM NaCl, 1 mM DTT, 1% DMSO, temperature not stated; details: protein: recombinant; chain copies: 2; blunt, self-complementary, 2 copies of strand
binder,measurement,setting,value
B1,Kd,[1],1.2 nM
same,Kd,[2],1.4 nM
same,Kd,[3],14.8 ± 2.4 nM
same,Kd,[4],17.9 nM
B2,binding result,[5],binds
B3,binding result,[6],binds

# Reference: PMC11828899, “Structural insights into human brachyury DNA recognition and discovery of progressible binders for cancer therapy”
